# Results from patent publication US11046988B2, “Process for the modification of a glycoprotein using a β-(1,4)-N-acetylgalactosaminyl transferase or a mutant thereof” (Synaffix B.V., priority 2014, dated 2021).
# System: trimmed trastuzumab (core GlcNAc(Fuc) / core GlcNAc, glycan of formula (1))
# Assay: Glycosyltransfer of sugar derivative to trimmed (Endo S deglycosylated) trastuzumab, MS analysis
# Assay type: biochemical
# Conditions: for major heavy chain product, F2-GalNAz transfer to core GlcNAc(Fuc)-substituted trastuzumab: UDP-F2-GalNAz 0.4 mM, GalNAcT 1 mg/mL, 10 mM MnCl2, pH 8.0, 16 hours, 30° C.; for cumulative conversions of the major and minor product, F2-GalNAz transfer: UDP-F2-GalNAz (18) 1 mM, enzyme 0.25 mg/mL; for cumulative conversions of the major and minor product, F2-GalNBzN3 transfer: UDP-F2-GalNBzN3 (24) 1 mM, enzyme 0.5 mg/mL
# Protocol: Trimming of IgG glycans was performed using Endo S from Streptococcus pyogenes (commercially available from Genovis, Lund, Sweden). The IgG (10 mg/mL) was incubated with Endo S (40 U/mL) in 25 mM Tris pH 8.0 for approximately 16 hours at 37° C. The deglycosylated IgG was concentrated and washed with 10 mM MnCl2 and 25 mM Tris-HCl pH 8.0 using an Amicon Ultra-0.5, Ultracel-10 Membrane (Millipore).
# Trastuzumab was subjected to the trimming protocol above. Analysis of the trimmed antibody was performed on a JEOL AccuToF equipped with an Agilent 1100 HPLC. Samples (2 μL) were reduced with DTT (2 μL) during 10 min and subsequently diluted with H2O (40 μL) prior to injection. […] The two peaks of heavy chain belonged to one major product (49496 Da, 90% of total heavy chain), resulting from core GlcNAc(Fuc) substituted trastuzumab, and a minor product (49351 Da, ±10% of total heavy chain), resulting from core GlcNac substituted trastuzumab. This is an example of a glycoprotein comprising a glycan according to formula (1).
# A solution of 50 μg (modified) IgG, 1 M Tris-HCl pH 8.0, 1 mM EDTA and 30 mM DTT with a total volume of approximately 70 μL was incubated for 20 minutes at 37° C. to reduce the disulfide bridges allowing to analyze both light and heavy chain. If present, azide-functionalities are reduced to amines under these conditions. Reduced samples were washed trice with milliQ using an Amicon Ultra-0.5, Ultracel-10 Membrane (Millipore) and concentrated to 10 μM (modified) IgG. The reduced IgG was analyzed by electrospray ionization time-of-flight (ESI-TOF) on a JEOL AccuTOF. Deconvoluted spectra were obtained using Magtran software.
# Enzymatic introduction of galactose derivative (e.g. azido-containing sugar) onto IgG was effected with a GalNAc-transferase or a mutant thereof. The deglycosylated IgG (prepared as described above, 10 mg/mL) was incubated with a modified UDP-galactose derivative (e.g. an azido-modified sugar-UDP derivative) (0.4 mM) and GalNAcT (1 mg/mL) in 10 mM MnCl2 and 25 mM Tris-HCl pH 8.0 for 16 hours at 30° C. The functionalized IgG (e.g. azido-functionalized IgG) was incubated with protein A agarose (40 μL per mg IgG) for 2 hours at 4° C. The protein A agarose was washed three times with PBS and the IgG was eluted with 100 mM glycine-HCl pH 2.7. The eluted IgG was neutralized with 1 M Tris-HCl pH 8.0 and concentrated and washed with PBS using an Amicon Ultra-0.5, Ultracel-10 Membrane (Millipore) to a concentration of 15-20 mg/mL.
# Enzymatic introduction of galactose derivative (e.g. thio-containing sugar 21) onto IgG was effected with a GalNAc-transferase or a mutant thereof. The deglycosylated IgG (prepared as described above, 10 mg/mL) was incubated with a modified UDP-galactose derivative (e.g. an thio-modified sugar-UDP derivative) (2 mM) and GalNAcT (0.2 mg/mL) in 10 mM MnCl2 and 50 mM Tris-HCl pH 6.0 for 16 hours at 30° C. The functionalized IgG (e.g. thio-functionalized trastuzumab) was incubated with protein A agarose (40 μL per mg IgG) for 1 hours at rt. The protein A agarose was washed three times with TBS (pH 6.0) and the IgG was eluted with 100 mM glycine-HCl pH 2.5. The eluted IgG was neutralized with 1 M Tris-HCl pH 7.0 and concentrated and washed with 50 mM Tris-HCl pH 6.0 using an Amicon Ultra-0.5, Ultracel-10 Membrane (Millipore) to a concentration of 15-20 mg/mL.
molecule,measurement,setting,value
"AsGalNAcT: truncated Ascaris suum β-(1,4)-GalNAcT, amino acids 30-383 of SEQ ID NO: 3 (SEQ ID NO: 7) (protein, AsGalNAcT (30-383)) DYSFWSPAFIISAPKTLTTLQPFSQSTSTNDLAVSALESVEFSMLDNSSILHASDNWTNDELVMRAQNENLQLCPMTPPALVGPIKVWMDAPSFAELERLYPFLEPGGHGMPTACRARHRVAIVVPYRDRESHLRTFLHNLHSLLTKQQLDYAIFVVEQTANETFNRAKLMNVGYAEAIRLYDWRCFIFHDVDLLPEDDRNLYSCPDEPRHMSVAVDKFNYKLPYGSIFGGISALTREQFEGINGFSNDYWGWGGEDDDLSTRVTLAGYKISRYPAEIARYKMIKHNSEKKNPVNRCRYKLMSATKSRWRNDGLSSLSYDLISLGRLPLYTHIKVDLLEKQSRRYLRTHGFPTC","major heavy chain product, F2-GalNAz transfer to core GlcNAc(Fuc)-substituted trastuzumab",,approximately 90 % of total heavy chain
same,"major product, GalNButN3 transfer to core GlcNAc(Fuc) substituted trastuzumab","UDP-GalNButN3 0.7 mM, AsGalNAcT(wt) 0.2 mg/mL, overnight",50 % of total heavy chain
same,"major product, GalNProSH transfer to core GlcNAc(Fuc) substituted trastuzumab","UDP-GalNProSH 2 mM, AsGalNAcT 0.2 mg/mL, overnight",95 % of total heavy chain
same,"major product, GalNPropN3 transfer to core GlcNAc(Fuc) substituted trastuzumab","UDP-GalNPropN3 0.7 mM, AsGalNAcT 0.2 mg/mL, overnight",70 % of total heavy chain
"DmGalNAcT: truncated Drosophila melanogaster β-(1,4)-GalNAcT, amino acids 47-403 of SEQ ID NO: 5 (SEQ ID NO: 9) (protein, DmGalNAcT (47-403)) HKYAHIYGNASSDGAGGSEASRLPASPLALSKDRERDQELNGGPNSTIRTVIATANFTSIPQDLTRFLLGTKKFLPPRQKSTSALLANCTDPDPRDGGPITPNTTLESLDVIEAELGPLLRPGGAFEPENCNAQHHVAIVVPFRDRYAHLLLFLRNIHPFLMKQRIAYRIFIVEQTNGKPFNRAAMMNIGYLEALKLYQWDCFIFHDVDLLPLDDRNLYNCPRQPRHMSVAIDTLNFRLPYRSIFGGVSAMTREHFQAVNGFSNSFFGWGGEDDDMSNRLKHANLFISRYPVNIARYKMLKHQKEKANPKRYENLQNGMSKIEQDGINSIKYSIYSIKQFPTFTWYLAELKNSERKS","major heavy chain product, F2-GalNAz transfer to core GlcNAc(Fuc)-substituted trastuzumab",,approximately 90 % of total heavy chain
"TnGalNAcT(wt): wild-type TnGalNAcT compared with the mutants; probably His6-TnGalNAcT(33-421), SEQ ID NO: 49, from E. coli (protein, His6-TnGalNAcT(33-421)) MGSSHHHHHHSSGLVPRGSHMSPLRTYLYTPLYNATQPTLRNVERLAANWPKKIPSNYIEDSEEYSIKNISLSNHTTRASVVHPPSSITETASKLDKNMTIQDGAFAMISPTPLLITKLMDSIKSYVTTEDGVKKAEAVVTLPLCDSMPPDLGPITLNKTELELEWVEKKFPEVEWGGRYSPPNCTARHRVAIIVPYRDRQQHLAIFLNHMHPFLMKQQIEYGIFIVEQEGNKDFNRAKLMNVGFVESQKLVAEGWQCFVFHDIDLLPLDTRNLYSCPRQPRHMSASIDKLHFKLPYEDIFGGVSAMTLEQFTRVNGFSNKYWGWGGEDDDMSYRLKKINYHIARYKMSIARYAMLDHKKSTPNPKRYQLLSQTSKTFQKDGLSTLEYELVQVVQYHLYTHILVNIDERS","cumulative conversions of the major and minor product, F2-GalNAz transfer",overnight,95%
same,"cumulative conversions of the major and minor product, F2-GalNBzN3 transfer",overnight,14%
"TnGalNAcT(W336F): T. ni GalNAcT mutant, tryptophan 336 to phenylalanine, SEQ ID NO: 50 (protein, His6-TnGalNAcT(33-421; W336F)) MGSSHHHHHHSSGLVPRGSHMSPLRTYLYTPLYNATQPTLRNVERLAANWPKKIPSNYIEDSEEYSIKNISLSNHTTRASVVHPPSSITETASKLDKNMTIQDGAFAMISPTPLLITKLMDSIKSYVTTEDGVKKAEAVVTLPLCDSMPPDLGPITLNKTELELEWVEKKFPEVEWGGRYSPPNCTARHRVAIIVPYRDRQQHLAIFLNHMHPFLMKQQIEYGIFIVEQEGNKDFNRAKLMNVGFVESQKLVAEGWQCFVFHDIDLLPLDTRNLYSCPRQPRHMSASIDKLHFKLPYEDIFGGVSAMTLEQFTRVNGFSNKYWGFGGEDDDMSYRLKKINYHIARYKMSIARYAMLDHKKSTPNPKRYQLLSQTSKTFQKDGLSTLEYELVQVVQYHLYTHILVNIDERS","cumulative conversions of the major and minor product, F2-GalNAz transfer",overnight,24%
"TnGalNAcT(E339A): T. ni GalNAcT mutant, glutamic acid 339 to alanine, SEQ ID NO: 53 (protein, His6-TnGalNAcT(33-421; E339A)) MGSSHHHHHHSSGLVPRGSHMSPLRTYLYTPLYNATQPTLRNVERLAANWPKKIPSNYIEDSEEYSIKNISLSNHTTRASVVHPPSSITETASKLDKNMTIQDGAFAMISPTPLLITKLMDSIKSYVTTEDGVKKAEAVVTLPLCDSMPPDLGPITLNKTELELEWVEKKFPEVEWGGRYSPPNCTARHRVAIIVPYRDRQQHLAIFLNHMHPFLMKQQIEYGIFIVEQEGNKDFNRAKLMNVGFVESQKLVAEGWQCFVFHDIDLLPLDTRNLYSCPRQPRHMSASIDKLHFKLPYEDIFGGVSAMTLEQFTRVNGFSNKYWGWGGADDDMSYRLKKINYHIARYKMSIARYAMLDHKKSTPNPKRYQLLSQTSKTFQKDGLSTLEYELVQVVQYHLYTHILVNIDERS","cumulative conversions of the major and minor product, F2-GalNAz transfer",overnight,5%
"TnGalNAcT(L302A): T. ni GalNAcT mutant, leucine 302 to alanine, SEQ ID NO: 43 (protein, His6-TnGalNAcT(33-421; L302A)) MGSSHHHHHHSSGLVPRGSHMSPLRTYLYTPLYNATQPTLRNVERLAANWPKKIPSNYIEDSEEYSIKNISLSNHTTRASVVHPPSSITETASKLDKNMTIQDGAFAMISPTPLLITKLMDSIKSYVTTEDGVKKAEAVVTLPLCDSMPPDLGPITLNKTELELEWVEKKFPEVEWGGRYSPPNCTARHRVAIIVPYRDRQQHLAIFLNHMHPFLMKQQIEYGIFIVEQEGNKDFNRAKLMNVGFVESQKLVAEGWQCFVFHDIDLLPLDTRNLYSCPRQPRHMSASIDKAHFKLPYEDIFGGVSAMTLEQFTRVNGFSNKYWGWGGEDDDMSYRLKKINYHIARYKMSIARYAMLDHKKSTPNPKRYQLLSQTSKTFQKDGLSTLEYELVQVVQYHLYTHILVNIDERS","cumulative conversions of the major and minor product, F2-GalNAz transfer",overnight,95%
same,"cumulative conversions of the major and minor product, F2-GalNBzN3 transfer",overnight,37%
"TnGalNAcT(W336V): T. ni GalNAcT mutant, tryptophan 336 to valine, SEQ ID NO: 52 (protein, His6-TnGalNAcT(33-421; W336V)) MGSSHHHHHHSSGLVPRGSHMSPLRTYLYTPLYNATQPTLRNVERLAANWPKKIPSNYIEDSEEYSIKNISLSNHTTRASVVHPPSSITETASKLDKNMTIQDGAFAMISPTPLLITKLMDSIKSYVTTEDGVKKAEAVVTLPLCDSMPPDLGPITLNKTELELEWVEKKFPEVEWGGRYSPPNCTARHRVAIIVPYRDRQQHLAIFLNHMHPFLMKQQIEYGIFIVEQEGNKDFNRAKLMNVGFVESQKLVAEGWQCFVFHDIDLLPLDTRNLYSCPRQPRHMSASIDKLHFKLPYEDIFGGVSAMTLEQFTRVNGFSNKYWGVGGEDDDMSYRLKKINYHIARYKMSIARYAMLDHKKSTPNPKRYQLLSQTSKTFQKDGLSTLEYELVQVVQYHLYTHILVNIDERS","cumulative conversions of the major and minor product, F2-GalNAz transfer",overnight,27%
